# Target: T1, GFP-RGS19 (UniProt P49795 1-217)
# T1 construct: RGS19, regulator of G protein signaling 19; Plasmid published earlier; also called GFP-tagged RGS19 construct; source: HEK293T, transfected, in lysate
# T1 sequence (looked up): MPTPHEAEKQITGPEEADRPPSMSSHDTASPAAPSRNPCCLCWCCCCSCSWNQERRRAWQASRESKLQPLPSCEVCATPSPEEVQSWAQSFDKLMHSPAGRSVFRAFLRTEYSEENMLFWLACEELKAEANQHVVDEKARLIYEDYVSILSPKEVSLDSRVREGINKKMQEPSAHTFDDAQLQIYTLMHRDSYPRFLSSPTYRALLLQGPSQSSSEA
# Test: co-IP; HEK293T co-transfected with the GFP-tagged construct and non-tagged Gαo variants; IP of the GFP fusion with a recombinant GST-tagged nanobody against GFP; Western blot with antibodies against Gαo and GFP; blots quantified with ImageJ
# Conditions: partners not purified
binder,measurement,value
"Gαo L39_G40insV (non-tagged) (natural protein, human, UniProt P09471-1 1-354, looked up, Gαo (GNAO1) with the patient variant p.Leu39_Gly40insVal (c.116_118dup), introduced by site-directed mutagenesis into the non-tagged Gαo plasmid; De novo patient variant; also called p.Leu39_Gly40insVal; source: HEK293T, transfected (in lysate for co-IP; in cells for BRET)) MGCTLSAEERAALERSKAIEKNLKEDGISAAKDVKLLLLVGAGESGKSTIVKQMKIIHEDGFSGEDVKQYKPVVYSNTIQSLAAIVRAMDTLGIEYGDKERKADAKMVCDVVSRMEDTEPFSAELLSAMMRLWGDSGIQECFNRSREYQLNDSAKYYLDSLDRIGAADYQPTEQDILRTRVKTTGIVETHFTFKNLHFRLFDVGGQRSERKKWIHCFEDVTAIIFCVALSGYDQVLHEDETTNRMHESLMLFDSICNNKFFIDTSIILFLNKKDLFGEKIKKSPLTICFPEYTGPNTYEDAAAYIQAQFESKNRSPNKEIYCHMTCATDTNNIQVVFDAVTDIIIANNLRGCGLY",percent of the binding of wild-type,< 15%

# From article PMC12781765, “Atypical GNAO1 variants in severe childhood speech disorders: clinical, genetic, and molecular insights” (Molecular Autism, 2025)
